The results in this text go back to the supplement of paper PMC10126150.

± gives the standard deviation of the averaged measurements.
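Note: ATP exposure 15 min at 22 °C before imaging.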

This data set relates to ATP. Briefly: switch fluorescence ratio, 500 uM ATP over buffer (Cy3 cluster intensity, sum of 5 cycles each) (fold (ratio)); higher = stronger signal-on switching upon ATP binding; sequences stand for … in TCGTCGGCAGCGTCAGATGTGTATAAGAGACAGTTTTTTTTTTTTTTTTTTTTTTTTT…TC. The settings on record: aptamer strand: ATP DNA aptamer (quencher-CACCTGGGGGAGTATTGCGGAGGAAGG + anchor), 100 nM annealed; ATP concentration: 500 uM. A digest of the protocol:
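Cy3-labelled switching-strand clusters on a modified Illumina MiSeq flow-cell were annealed to 100 nM quencher-labelled ATP aptamer, imaged in selection buffer, then imaged after 15 min with 500 uM ATP at 22 °C. Five buffer/ATP cycles ran, with NaOH stripping and re-annealing between them. The fluorescence ratio is summed target-cycle over summed buffer-cycle Cy3 intensity per cluster, averaged per switch-domain sequence. Clusters outside 100-1000 RFU were excluded.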
As for CTATGCGTTT, the switch fluorescence ratio was found to be 0.989 ± 0.025.
As for TTTAAGCGCC, the switch fluorescence ratio stood at 0.966 ± 0.0085.
Turning to GTTGTAGCTG, the switch fluorescence ratio worked out at 0.967 ± 0.015.
For TAATTATGCC, the switch fluorescence ratio stood at 1.05 ± 0.04.
In the case of GGGGTCACTA, the switch fluorescence ratio came to 0.9559 ± 0.009.
Take CGCGAGGATG: the switch fluorescence ratio was found to be 1.022 ± 0.0099.
Turning to TGCCGAAAGT, the switch fluorescence ratio worked out at 0.962 ± 0.033.
As for CCAGGATTAT, the switch fluorescence ratio was 1.027 ± 0.0034.
In the case of ATGGTCGGGG, the switch fluorescence ratio was determined as 0.995 ± 0.042.
As for GAGTGAAGGT, the figure is 0.9963 ± 0.008; as for TGGCGGATAT, 1.06 ± 0.1.
For the sequence AGAGTGGCAA, the switch fluorescence ratio turned out to be 1.04 ± 0.016.
In the case of GTTGAGGTCC, the switch fluorescence ratio is 1.02 ± 0.041.
Regarding CGGAATGGGG, the switch fluorescence ratio was found to be 1.02 ± 0.015.
For the sequence AAGGAATAGT, the switch fluorescence ratio was determined as 1.01 ± 0.026.
As for AAGTTTTCGC, the figure is 0.9789 ± 0.0067; as for GATATGTTGG, 0.999 ± 0.017; as for TTTGTTTTTA, 1.02 ± 0.041.
As for CCAGATTACT, the figure is 1.01 ± 0.015; as for GGGGGATCGA, 1.04 ± 0.086.
For the sequence CGGGTCTTGC, the switch fluorescence ratio worked out at 0.981 ± 0.035.
As to ACGCCCTGGC, the switch fluorescence ratio stood at 1.04 ± 0.045.
With TCCAAGAGGG, the switch fluorescence ratio worked out at 1.01 ± 0.031.
On to TAAAAGTCTA, for which the switch fluorescence ratio worked out at 0.9999 ± 0.0094.
On to TTTGATCAAG, for which the switch fluorescence ratio stood at 1.021 ± 0.008.
Regarding TGGGATACGA, the switch fluorescence ratio stood at 4.47 ± 0.82.
In the case of AGGGGGAGTT, the switch fluorescence ratio amounted to 0.979 ± 0.025.
On to TAAAGAAAGA, for which the switch fluorescence ratio came to 1.1 ± 0.23.
On to GCTAAAACAG, for which the switch fluorescence ratio was found to be 0.985 ± 0.026.
With TTTTTATCAT, the switch fluorescence ratio amounted to 0.998 ± 0.037.
As for TTTCGGTTCA, the figure is 1.037 ± 0.0044; as for GGGAAGTATA, 1 ± 0.027; as for AAACGTACTT, 1.58 ± 0.086.
In the case of TATAGTGGGT, the switch fluorescence ratio worked out at 1.01 ± 0.067.
For AACGGGGTAG, the switch fluorescence ratio was determined as 0.983 ± 0.034.
As for CAGGGGGCTA, the figure is 1.01 ± 0.067; as for GTTATAACG, 1 ± 0.05; as for TGAGGGGTCA, 1.002 ± 0.0076.
For the sequence TTACGCCCTT, the switch fluorescence ratio worked out at 1.11 ± 0.08.
As to GGATAAAAAT, the switch fluorescence ratio stood at 1.02 ± 0.025.
Consider GGTGTAAGAA, for which the switch fluorescence ratio was 1.002 ± 0.0085.
Under AGGGTTATGG stands 0.996 ± 0.016; under CGGAAAGACG, 1.05 ± 0.014.
Consider GGGCACATGG, for which the switch fluorescence ratio turned out to be 1.02 ± 0.029.
As to GGGGGTATGC, the switch fluorescence ratio turned out to be 1.05 ± 0.15.
Take TCGTGACGAA: the switch fluorescence ratio was 1.03 ± 0.02.
For the sequence TTGAGGGAGA, the switch fluorescence ratio stood at 1.02 ± 0.058.
For AGGGAAGCT, the switch fluorescence ratio is 1.05 ± 0.015.
CGGCGCACAG: the switch fluorescence ratio is 1.31 ± 0.051.
Regarding TCGGTGGGAG, the switch fluorescence ratio stood at 0.981 ± 0.048.
As for CATCGGTGGG, the switch fluorescence ratio was 0.97 ± 0.016.
Regarding AAGAGTGCGG, the switch fluorescence ratio was determined as 0.9742 ± 0.0074.
Take GTGATAAGAA: the switch fluorescence ratio is 1.009 ± 0.0057.
Consider TGGGGGCAGT, for which the switch fluorescence ratio was found to be 1.12 ± 0.066.
For the sequence TTTCTAAGGG, the switch fluorescence ratio was 1.07 ± 0.061.
Consider AGGAATCCGT, for which the switch fluorescence ratio was 1.03 ± 0.022.
As for ACGTATCCGG, the figure is 0.9932 ± 0.0067.
As for TGGGTCAGGT, the figure is 0.9994 ± 0.0084; as for TTTGATTTGC, 0.961 ± 0.042; as for TGGCAGCAGT, 1.09 ± 0.019.
In the case of CATGGCACGT, the switch fluorescence ratio was 1.02 ± 0.011.
Under ATTGGGATGA stands 0.976 ± 0.025.
Regarding CCAATAACGC, the switch fluorescence ratio amounted to 1.22 ± 0.074.
As for CTGAGAACTT, the figure is 0.983 ± 0.055; as for CATTTACTAT, 1.05 ± 0.021; as for TAGGGGGTAG, 1.01 ± 0.036.
TTTTTAAGGT: the switch fluorescence ratio came out at 1 ± 0.015.
With TGTGGGCAAT, the switch fluorescence ratio turned out to be 1.56 ± 0.77.
As to GGAGGAGAGG, the switch fluorescence ratio amounted to 1.01 ± 0.04.
In the case of GAGGCCGGAA, the switch fluorescence ratio turned out to be 1.07 ± 0.016.
Under TTAGACGCTT stands 1 ± 0.011; under GCGGAGTATT, 1.02 ± 0.012.
With TGCAAGTTTG, the switch fluorescence ratio was determined as 1 ± 0.017.
Take TATCCACATA: the switch fluorescence ratio was 1.1 ± 0.013.
Turning to TTCGTCTGGG, the switch fluorescence ratio was 1.03 ± 0.065.
Under CCGGAAACCA stands 1.01 ± 0.021.
Under TTTTTCCTTT stands 1.02 ± 0.033.
With AGGGTTCGGA, the switch fluorescence ratio was determined as 1.015 ± 0.0029.
For the sequence GCTGGGGCAA, the switch fluorescence ratio worked out at 1.01 ± 0.037.
As to GGGCGGTGGG, the switch fluorescence ratio came out at 1 ± 0.068.
Turning to ACAAGTCGTT, the switch fluorescence ratio came out at 0.972 ± 0.039.
For the sequence GATATTTGCG, the switch fluorescence ratio turned out to be 1.015 ± 0.0024.
For the sequence TGTTGCGGGG, the switch fluorescence ratio turned out to be 0.995 ± 0.038.
Regarding ATTTTGAAGA, the switch fluorescence ratio was 1.01 ± 0.032.
Consider TTATGGAGTT, for which the switch fluorescence ratio came to 0.987 ± 0.01.
Consider GCATAAAACT, for which the switch fluorescence ratio was 1.04 ± 0.014.
On to GGTGAGGGAC, for which the switch fluorescence ratio is 1.02 ± 0.011.
For the sequence TTAACGGTTT, the switch fluorescence ratio is 0.988 ± 0.013.
On to GGAGGGCCTG, for which the switch fluorescence ratio amounted to 0.986 ± 0.013.
As to TCGGGGGTAG, the switch fluorescence ratio worked out at 0.985 ± 0.014.
With TGTAATTTCG, the switch fluorescence ratio came out at 1.03 ± 0.04.
Under CTCATCGGTC stands 1.02 ± 0.035.
Consider CCAGTCAACG, for which the switch fluorescence ratio is 0.9802 ± 0.0085.
With TCAGTTTTTT, the switch fluorescence ratio was 0.999 ± 0.035.
Take CGTCGGTAAG: the switch fluorescence ratio is 1.04 ± 0.027.
Turning to TTCAGGGCGC, the switch fluorescence ratio stood at 1.03 ± 0.053.
Take GGGGGTGCGG: the switch fluorescence ratio worked out at 0.977 ± 0.044.
GACTGGGTCG: the switch fluorescence ratio was found to be 1.06 ± 0.012.
Take TAGGGGCAGC: the switch fluorescence ratio was determined as 1.01 ± 0.0054.
Under CCGAGTAGGG stands 1.074 ± 0.0031; under GTTTCTGGGG, 0.971 ± 0.052; under TATTAATCTT, 1.02 ± 0.014.
Under GCAACTGATC stands 1.19 ± 0.031; under AAAGGTGCCT, 1.05 ± 0.031.
Turning to GGAGGAGTTT, the switch fluorescence ratio stood at 1.65 ± 0.92.
Regarding GCGTTTAAGA, the switch fluorescence ratio was determined as 1.04 ± 0.021.
Under CGGGGTGTTC stands 0.9849 ± 0.0049; under GATTTAATAG, 0.9625 ± 0.0076; under CATCGAGTGT, 1.05 ± 0.029.
As for TACTTTTTAT, the figure is 1.01 ± 0.018; as for CACTTGGGCG, 1.033 ± 0.0077.
Regarding GGGCGGGTGT, the switch fluorescence ratio stood at 0.987 ± 0.059.
Under GGCCCCCGGT stands 1.1 ± 0.068; under TTAAAAGTTT, 0.994 ± 0.043; under GCGTTTTGGG, 0.979 ± 0.041.
Turning to AGGGTTGTGT, the switch fluorescence ratio came to 1.02 ± 0.029.
Consider TGTGGGCAGT, for which the switch fluorescence ratio was determined as 1.02 ± 0.03.
TAGAGGGATG: the switch fluorescence ratio turned out to be 0.989 ± 0.015.
With TTTTGTTTGT, the switch fluorescence ratio turned out to be 1.01 ± 0.037.
For AGAGTTTGGT, the switch fluorescence ratio came to 0.9847 ± 0.0013.
